The target in data set [1] is trypsin (UniProt P00760). The data set is described as follows: enzyme inhibition assay (trypsin proteolytic activity on a fluorogenic substrate); apparent; trypsin 2.3 pM, tosyl-GPR-AMC substrate 5 uM, activity measured for 2 h after pre-incubation of the peptides with protease for 1 h at room temperature.
Data set [2] deals with T1, trypsin (Bos taurus, UniProt P00760).
T1 construct: gene PRSS1
T1 sequence (P00760 24-246): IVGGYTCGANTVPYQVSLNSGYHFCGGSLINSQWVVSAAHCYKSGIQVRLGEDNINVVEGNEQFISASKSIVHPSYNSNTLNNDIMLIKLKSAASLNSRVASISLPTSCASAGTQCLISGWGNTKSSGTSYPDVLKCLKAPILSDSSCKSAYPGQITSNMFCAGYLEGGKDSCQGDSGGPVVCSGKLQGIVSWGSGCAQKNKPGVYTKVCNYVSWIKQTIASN
As to the kind of experiment: Trypsin enzymatic assay. Format: biochemical. On the procedure:
Assays were done as described earlier with slight modification. Briefly, normalized proteolytic activity of trypsin (2.3 pM) toward tosyl-GPR-AMC substrate (5 μM) was measured for 2 h after pre-incubation of the peptides with protease for 1 h at room temperature. The data were plotted and fitted using KaleidaGraph v3.6 software. Apparent […] (Ki^app) was determined from at least three independent measurements.

For data set [3] the following is noted: SGF with pepsin, pH 1.2, 37 °C, peptide 0.3 mg/ml, after several days; LC/MS, A214nm peak area vs internal standard. As for the experimental part:
Peptides were incubated at a concentration of 0.3 mg/ml in simulated gastric fluid at 37 °C for the indicated times. To prepare simulated gastric fluid, 2 g of sodium chloride, 43 mg of sodium thaurocholate, 16 mg of lecithin and 100 mg of pepsin were dissolved in 1 L of Milli-Q water (18.2 MΩ.cm^−1) and adjusted to pH 1.2 with 37% hydrochloric acid. At the indicated time points, 10 μl (3 μg) aliquots were removed from the reaction, quenched with 0.25 M NaOH and then mixed with 2.6 μg of the internal standard. Samples were immediately analyzed by analytical LC/MS (Agilent 1200 series) and the area under the A214nm peak was quantified.

Consider “Alexa488-labeled recombinant EETI-II (peptide)”, for which the Ki with trypsin [1] is 0.71 nM.

As for “recombinant EETI-II (Ecballium elaterium trypsin inhibitor II) (peptide)”, the Ki with trypsin [1] was determined as 0.16 nM.

The molecule `CC[C@H](C)[C@@H]1NC(=O)[C@H](CCCNC(=N)N)NC(=O)[C@@H]2CCCN2C(=O)[C@@H](NC(=O)CNC(=O)[C@H](CO)NC(=O)CN)CSSC[C@@H]2NC(=O)CNC(=O)[C@H](C)NC(=O)[C@H](CC(C)C)NC(=O)[C@@H]3CSSC[C@@H](C(=O)NCC(=O)NCC(=O)N[C@@H](CC(N)=O)C(=O)N[C@@H](CO)C(=O)O)NC(=O)[C@H](Cc4ccccc4)NC(=O)CNC(=O)[C@H](CC(N)=O)NC(=O)[C@@H]4CCCN4C(=O)CNC(=O)[C@H](CSSC[C@H](NC(=O)[C@H](CCCNC(=N)N)NC(=O)[C@H](CCSC)NC(=O)[C@H](CC(C)C)NC1=O)C(=O)N[C@@H](CCCCN)C(=O)N[C@@H](CCC(N)=O)C(=O)N[C@@H](CC(=O)O)C(=O)N[C@@H](CO)C(=O)N[C@@H](CC(=O)O)C(=O)N3)NC(=O)[C@H](C(C)C)NC2=O` [rEETI-II] showed a Ki on trypsin [2] of 0.16 ± 0.01 nM. Further, the “remaining in simulated gastric fluid” value in data set [3] is reported as 50%.

The values are drawn from paper PMC5062073, “Cellular uptake of a cystine-knot peptide and modulation of its intracellular trafficking” (Scientific Reports, 2016).
